Laboratory results: the RNAGym collection of RNA variant scans (doi:10.1073/pnas.2313332121)
Fewer inactive variants are shown than the library holds.

B1: TPR 5TU (parent)
chain: GGAUCUUCUCGAUCUAACAAAAAAGACAAAUCUGCCACAAAGCUUGAGAGCAUCUUCGGAUGCAGAGGCGGCAGCCUUCGGUGGCGCGAUAGCGCCAACGUUCUCAACUAUGACACGCAAAACGCGUGCUCCGUUGAAUGGAGUUUAUCAUG

Variants of: B1
Experiment: polymerase ribozyme fitness, log enrichment relative to wild type (log ratio); higher = more active; in vitro selection for triplet polymerase activity
Procedure, shortened: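 Fitness compares each genotype's enrichment to that of the wild type on a logarithmic scale, averaging replicates with inverse-variance weights. The logarithm is base 2. Enrichment came from Illumina sequencing of input and output libraries after one triplicate round of in vitro selection, which included frozen incubation at −7 °C, of PCR-built, transcribed mutant libraries of each subunit of a heterodimeric triplet polymerase ribozyme. Only genotypes with ≥10 input reads and ≥1 read per output were kept.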

| Variant | polymerase ribozyme fitness (log ratio) |
| --- | --- |
| GGAUCUUCUCGAUCUAACAAAAAAGACAAAUCGGCCACAAAGCUUGAGAUCAUCUUCGGAUGCAGAGGCGGCAGCCUUCGGUGGCGCGAGAGCGCGAACGUUCUCAACUAUGACACGCAAAACGCGUGCUCCGUUGAAUGGAGUUUAUCAUG [U33G G50U U90G C96G] | -3.98 |
| GGAUCUUCUCGAUCUAACAAAAAAGACAAAUCGGCCACAAAGCUUGAGAGCAUUUUCGGAUGCAGAGGCGGCAGCCUUCGGUGGCGCGAUAGCGCGAACGUUCUCAACUAUGACACGCAAAACGCGUGCUCCGUUGAAUGGAGUUUUUCAUG [U33G C54U C96G A147U] | -3.24 |
| GGAUCUUCUCGAUCUAACAAAAAAGACAAAUCUACCACAAAGCUUGAGAGCAUCUUCGGGUGCAGAGGCGGCAGCCUUCGGUGGCGCGAUAGCACCAACGUUCUCAACUAUGACACGCAAAACGCGUGCUCCGUUGAAUGGAGUUUGUCCUG [G34A A60G G94A A147G A150C] | ≤ -4.2 |
| GGAUCUUCUCGAUCUAACAAAAAAGACAAAUCGGCCACAAAGCUUGAGAGCAUCUUCGGAUGCAGAGGCGGCAGCCUUCCGUGGGGCGAUAGCGCCAACGUUCUCAACUAUGACACGCAAAACGCGUGCUCCGUUGAAUGGAGUUUAUCAUG [U33G G80C C85G] | ≤ -4.2 |
| GGAUCUUCUCGAUCUAACAAAAAAGACAAAUCGGCCACAAAGCUUGAGAGCAGUUUCAGAUGCAGAGGUGGCAGCCUUCGGUGGAGCGAUAGCGCCAACGUUCUCAACUAUGAUACGCAAAACGCGUGCUCCGUUGAAUGGAGUUUAUCAAG [U33G U53G C54U G58A C69U C85A C114U U151A] | ≤ -4.2 |
| GGAUCUUCUCGAUCUAACAAAAAAGACAAAUCUACCACAAAGCUUGUGAACAUCUUCGGAUGUAGAGGCGGCAGCCUUCGGUGGCGCGAUAGCGCCAACGUUCUCAACUAUGACACGCAAAACGCGUGCUCCGUUGAAUGGAGUUUAUCAUG [G34A A47U G50A C63U] | -2.2 |
| GGAUCUUCUCGAUCUAACAAAAAAGACAAAUCGGCCACAAAGCUUGAGAUGCUCUUCGGAUGCAGAGGCGGCAGCAUUCGGUGGCGCGAUAAAGCCAUCGUUCUCAACUAUGACACGCAAAACGCGUGCUCCGUUGAAUGGAGUUUAUCAUG [U33G G50U C51G A52C C76A G92A C93A A98U] | ≤ -4.2 |
| GGAUCUUCUCGAUCUAACAAAAAAGACAAAUCUACCACAAAGCUUGAGAGCAUCUUCGGAUGCAGUGGCGGCAGUCUUCGGUGGCGCGAUAGCGCCAACGUUCUCAACUAUGACACGCAAAACGCGUGCUCCGUUGGAUGGAGUUUAUCAUG [G34A A66U C75U A137G] | ≤ -4.2 |
| GGAUCUUCUCGAUCUAACAAAAAAGACAAAUCUAACACAAAGCUUGAGAGCAUCUUCGGAUGCAGAGGCGGCAGCCUUCGGUCGCGCGAUAGCGCCAACGUUCUCUACUAUGACACGCAAAACGCGUGCUCCUUUGGAUGUAGUUUAUCAUG [G34A C35A G83C A106U G133U A137G G141U] | ≤ -4.2 |
| GGAUCUUCUCGAUCUAACAAAAAAGACAAAUCGGCCACAAAGCUUGAGAGCAUCUUCGGAUGCAGAGGCGGCAGCCUUCGGUGGCGCGAUAGCGCCAACGUUCUCAACUAUGACACGCAAAACACGUGCUCCGGUGAAUGGAGUUUAUCAUG [U33G G124A U134G] | ≤ -4.2 |
| GGAUCUUCUCGAUCUAACAAAAAAGACAAAUCGGCCACAAAGCUUGAGAGCAUCUUCGGAUGCAGAGGCGGCAGCCUUCGGUGGCGCGAUAGCACCAACGUUCUCAACUAUGACACGCAAAAGGCGUGCUCCGUUAAAUGGAGUUUAUCAUG [U33G G94A C123G G136A] | ≤ -4.2 |
| GGAUCUUCUCGAUCUAACAAAAAAGACAAAUCGGCCACAAAGCUUGAGAGCAUCUUCGGAUGCAAAGGCCGCAGCCUUCGGUGGCGCGAUAGCGCCAACGUUCUCAAUUAUGACACGCAAAACGCGUGCUCCGUUGAAUGGAGUUUAUCAUG [U33G G65A G70C C108U] | ≤ -4.2 |
| GGAUCUUCUCGAUCUAACAAAAAAGACAAAUCGGCCACAAAGCUUGAGACCAUCUACGGAUGCAGAGGCGGCAGCCUUCGGUGGCGCGAUAGCGCCAACGUUCUCAACUAUGACACGCAAAACGCGUGCUCCGGUGAAUGGAGUCUAUCAUG [U33G G50C U56A U134G U145C] | ≤ -4.2 |
| GGAUCUUCUCGAUCUAACAAAAAAGACAAAUCGGCCACAAAGCUUGAGAGCAUCUUCGGAUGCAGAGACGGCAGCCUUCGGUGGCGGGAUAGCGCCAACGUUCUCAAUUAUGACACGCACAACGCGUGCUCCGUUUAAUGGAGUUUAUCAUG [U33G G68A C87G C108U A120C G136U] | ≤ -4.2 |
| GGAUCUUCUCGAUCUAACAAAAAAGACAAAUCUACCACUAAGCUUGAGAGCAUCUUCGGAUGCAGAGGCGGCAGCCUUCGGUGGCGCGAUAGCGCAAACGUUCUCAACUAUGACACGCAAAACGCGUGCUCCGUCGAAUCGAGUUUAUCAUG [G34A A39U C96A U135C G140C] | ≤ -4.2 |
| GGAUCUUCUCGAUCUAACAAAAAAGACAAAUCUACCACAAAGCUUGAGAGCAUCUUCGGAUGCAGAGGCGGCAGCCUUCGGUGGCGCGAUAGCGCCAACGUUCUCAACUAUGACACGCACAACGCGUGCUCCGUUGAAUGGAGUUUAUCAUG [G34A A120C] | 0.113 |
| GGAUCUUCUCGAUCUAACAAAAAAGACAAAUCGGCCACAAAGCUUGAGAGCAUCUUCCGAUGCAGAGGCGGCAGCCUUCGGUGGCGCGAUAGCGCCAACGUUCUCAACUAUGACACGCAGAACGCGUGCUCCCUUGAAUGGAGUUUAUCAUG [U33G G58C A120G G133C] | -3.81 |
| GGAUCUUCUCGAUCUAACAAAAAAGACAAAUCGGCCACAAAGCUUGAGAGCAUCUUCGGAUGCAGAGGCGGCAGCCUUCGGUGGCGCGAUAGCGUCAACGUUCUCAACUAUGACACGCAAAACGCGUGCUCCGUUGAAUGGAGUUUAUCAUG [U33G C95U] | -2.22 |
| GGAUCUUCUCGAUCUAACAAAAAAGACAAAUCGGCCACAAAGCUUGAGAGCAUCUACGGAUGCAGAGGUGGCAGCCUUCGGUGGCGGGAUAGCGCCAACGCUCUCAACUAUGACACGCAAAACGCGUGCUCCGUUGAAUGGAGUUUAUCAUG [U33G U56A C69U C87G U101C] | ≤ -4.2 |
